Assay results from paper PMC5389741.

Target: PGK1 (UniProt P00558)
Test: GST pull-down with purified proteins
Details: reference: WT GST-ARD1 with mTOR; sites S228

ARD1 (from UniProt P41227) GST-ARD1 S228A with mTOR
binding against the reference: stronger
